From patent publication US20250263475A1 (AGENCY FOR SCIENCE TECHNOLOGY AND RESEARCH, published 2025)
Ends that are not written are not given here. * marks the point of attachment. Biotin = O=C1N[C@H]2[C@H](CS[C@H]2CCCCC(=O)*)N1

Experiments:
SEQ ID NO 141 = target: T1, SEQ ID NO 141; assay: phage display: peptide captured by the antibody (FIG. 8B taken as clone 3G11 by paragraph 561)
T1 peptide: FSVPFDRIQETP

SEQ ID NO 142 = target: T2, SEQ ID NO 142; assay: as above
T2 peptide: FSVRPYDPQIEN

SEQ ID NO 138 = target: T3, SEQ ID NO 138; assay: as above
T3 peptide: WSVPPGRHIHYS

SEQ ID NO 140 = target: T4, SEQ ID NO 140; assay: as above
T4 peptide: FSVRPFHYAQDN

SEQ ID NO 136 = target: T5, SEQ ID NO 136; assay: as above
T5 peptide: SSTHYSWSLMDA

SEQ ID NO 139 = target: T6, SEQ ID NO 139; assay: as above
T6 peptide: FSVPSGHYIRAN

SEQ ID NO 137 = target: T7, SEQ ID NO 137; assay: as above
T7 peptide: GPSCHYCFTGLP

FSVPSGHYIRAN = target: T8, FSVPSGHYIRAN; assay: phage display, random 12-mers on M13 pIII, panning on the antibody
T8 construct: also called line 10 under 3G11
T8 peptide: FSVPSGHYIRAN

FSVRPFHYAQDN = target: T9, FSVRPFHYAQDN; assay: as above
T9 construct: also called line 8 under 3G11
T9 peptide: FSVRPFHYAQDN

FSVPFDRIQETP = target: T10, FSVPFDRIQETP; assay: as above
T10 construct: also called line 7 under 3G11
T10 peptide: FSVPFDRIQETP

SSTHYSWSLMDA = target: T11, SSTHYSWSLMDA; assay: as above
T11 construct: also called line 1 under 3G11
T11 peptide: SSTHYSWSLMDA

WSVPPGRHIHYS = target: T12, WSVPPGRHIHYS; assay: as above
T12 construct: also called lines 4 and 5 under 3G11
T12 peptide: WSVPPGRHIHYS

FSVRPYDPQIEN = target: T13, FSVRPYDPQIEN; assay: as above
T13 construct: also called line 9 under 3G11
T13 peptide: FSVRPYDPQIEN

GPSCHYCFTGLP = target: T14, GPSCHYCFTGLP; assay: as above
T14 construct: also called lines 2 and 3 under 3G11
T14 peptide: GPSCHYCFTGLP

[1] = target: T15, mouse p53 wild-type full length protein (mouse, UniProt P02340 1-390); assay: ELISA on coated full-length protein
T15 construct: mature; Full length protein in ELISA; also called wildtype mouse p53; p53 of wild-type MEFs

267 RNSFEVHVCACPG 279 = target: T16, 267 RNSFEVHVCACPG 279 (not fully specified; cysteine pairing not given here); assay: ELISA on biotinylated 13-mer on streptavidin plate, antibody 1 ug/ml, O.D. 650 nm
T16 construct: also called unsubstituted 13-mer of the alanine scan on R273H
T16 peptide: Biotin-RNSFEVHVCACPG

TFVHGNTWTIVN = target: T17, TFVHGNTWTIVN; assay: phage display, random 12-mers on M13 pIII, panning on the antibody
T17 construct: also called line 1 under 13E4
T17 peptide: TFVHGNTWTIVN

YNTFPYHLGYTL = target: T18, YNTFPYHLGYTL; assay: as above
T18 construct: also called line 5 under 13E4
T18 peptide: YNTFPYHLGYTL

DNASSSKVHHGH = target: T19, DNASSSKVHHGH; assay: as above
T19 construct: also called line 2 under 13E4
T19 peptide: DNASSSKVHHGH

GKTYSYHMQLYT = target: T20, GKTYSYHMQLYT; assay: as above
T20 construct: also called line 4 under 13E4
T20 peptide: GKTYSYHMQLYT

YHVGGILGRLFM = target: T21, YHVGGILGRLFM; assay: as above
T21 construct: also called line 3 under 13E4
T21 peptide: YHVGGILGRLFM

SEQ ID NO 114 = target: T22, SEQ ID NO 114; assay: phage display: peptide captured by the antibody from an M13 random 12-mer library (FIG. 7C = clone 13E4 by paragraph 523)
T22 peptide: YHVGGILGRLFM

SEQ ID NO 115 = target: T23, SEQ ID NO 115; assay: as above
T23 peptide: YNTFPYHLGYTL

SEQ ID NO 113 = target: T24, SEQ ID NO 113; assay: as above
T24 peptide: GKTYSYHMQLYT

SEQ ID NO 116 = target: T25, SEQ ID NO 116; assay: as above
T25 peptide: DNASSSKVHHGH

SEQ ID NO 117 = target: T26, SEQ ID NO 117; assay: as above
T26 peptide: TFVHGNTWTIVN

SEQ ID NO 109 = target: T27, SEQ ID NO 109; assay: phage display: peptide captured by the antibody from an M13 random 12-mer library (FIG. 7B = clone 4H2 by paragraph 523)
T27 peptide: INTPRDWAYGGL

SEQ ID NO 106 = target: T28, SEQ ID NO 106; assay: as above
T28 peptide: SSRPMAHWPIKV

SEQ ID NO 108 = target: T29, SEQ ID NO 108; assay: as above
T29 peptide: SNTPHWPGRPGI

SEQ ID NO 104 = target: T30, SEQ ID NO 104; assay: as above
T30 peptide: ELWQNVRPFLWV

SEQ ID NO 105 = target: T31, SEQ ID NO 105; assay: as above
T31 peptide: SRPADHWPRHNE

SNTPHWPGRPGI = target: T32, SNTPHWPGRPGI; assay: phage display, random 12-mers on M13 pIII, panning on the antibody
T32 construct: also called line 5 under 4H2
T32 peptide: SNTPHWPGRPGI

SSRPMAHWPIKV = target: T33, SSRPMAHWPIKV; assay: as above
T33 construct: also called line 3 under 4H2
T33 peptide: SSRPMAHWPIKV

ELWQNVRPFLWV = target: T34, ELWQNVRPFLWV; assay: as above
T34 construct: also called line 1 under 4H2
T34 peptide: ELWQNVRPFLWV

SRPADHWPRHNE = target: T35, SRPADHWPRHNE; assay: as above
T35 construct: also called line 2 under 4H2
T35 peptide: SRPADHWPRHNE

[2] = target: T36, human p53 wild-type full length protein (human, UniProt P04637 1-393); assay: ELISA on coated full-length protein
T36 construct: Full length recombinant protein in ELISA; expressed in transfected H1299 cells or endogenous in MCF7/A549 cells and tumour samples in blots, IP, IF and IHC; also called wildtype p53; WT HP53

B1: anti-R248Q p53 antibody clone 3G11 (antibody, V domains shown)
VH: DVQLQQSGPELVKPGASVKMSCKASGYTFTDYYVKWVKQSPGQSLEWIGDIHPKNGGTNYNQKFKGKAALTVDKSSSTAYMQLNSLTSEDSAVYFCAKMGGYDDYWGQGTTLTVSS
VL: not shown
SEQ ID NO 141
  binding result: binds
SEQ ID NO 142
  binding result: binds
SEQ ID NO 138
  binding result: binds
SEQ ID NO 140
  binding result: binds
SEQ ID NO 136
  binding result: binds
SEQ ID NO 139
  binding result: binds
SEQ ID NO 137
  binding result: binds
FSVPSGHYIRAN
  binding result: binds
FSVRPFHYAQDN
  binding result: binds
FSVPFDRIQETP
  binding result: binds
SSTHYSWSLMDA
  binding result: binds
WSVPPGRHIHYS
  binding result: binds
FSVRPYDPQIEN
  binding result: binds
GPSCHYCFTGLP
  binding result: binds
[1]
  binding result: no binding (tested: neat supernatant)

B2: mouse human chimeric anti-R248Q p53 antibody clone MH 3G11 (antibody, V domains shown)
VH: B1 VH
VL: not shown
notes: also called chimeric 3G11
[1]
  binding result: no binding (tested: 1 ng/µl)

B3: anti-R273H p53 antibody clone 13E4 (antibody, V domains shown)
VH: EVQLLETGGDLVTPGGSLKLSCAASGFSFSDYYMYWVRQTPEKRLEWVATISVGGTYTFYSDNVKGRFVISRDNARKNLHLEMNSLKSEDAAMYYCVRDGNDGKFLGYWGQGTFVTVTV
VL: DIVMTQSPLSLPVNLGDQVSLSCRSSQSIVHNNGDTYLEWYLQKPGQSPKLLIYKVSNRFSGVPDRFSGSGSGTDFTLKISRVEAEDLGIYYCFQGSHLPLTFGSGTKLELK
notes: Mouse monoclonal antibody from hybridoma; also called 13E4 mAb
267 RNSFEVHVCACPG 279
  binding result: binds
TFVHGNTWTIVN
  binding result: binds
YNTFPYHLGYTL
  binding result: binds
DNASSSKVHHGH
  binding result: binds
GKTYSYHMQLYT
  binding result: binds
YHVGGILGRLFM
  binding result: binds
SEQ ID NO 114
  binding result: binds
SEQ ID NO 115
  binding result: binds
SEQ ID NO 113
  binding result: binds
SEQ ID NO 116
  binding result: binds
SEQ ID NO 117
  binding result: binds

B4: anti-R248Q p53 antibody clone 4H2 (antibody, V domains shown)
VH: QVQLKQSGPELVKPGASVKMSCKASGYTFTDYYLKWVRQSHGKSLEWIGDIDPKNGGTNYNQKFKGKATLTVDKSSSTAYMQLNSLTSEDSAVYYCAKQGGFDDYWGQGTTLTVSS
VL: not shown
notes: Mouse monoclonal antibody from hybridoma
SEQ ID NO 109
  binding result: binds
SEQ ID NO 106
  binding result: binds
SEQ ID NO 108
  binding result: binds
SEQ ID NO 104
  binding result: binds
SEQ ID NO 105
  binding result: binds
SNTPHWPGRPGI
  binding result: binds
SSRPMAHWPIKV
  binding result: binds
ELWQNVRPFLWV
  binding result: binds
SRPADHWPRHNE
  binding result: binds
[1]
  binding result: no binding (tested: neat supernatant)
[2]
  binding result: no binding (tested: neat supernatant)

B5: mouse human chimeric anti-R248Q p53 antibody clone MH 4H2 (antibody, V domains shown)
VH: B4 VH
VL: not shown
notes: also called chimeric 4H2
[1]
  binding result: no binding (tested: 1 ng/µl)
